Assay [1] deals with T1, low molecular weight (LMW) polypeptide component of the oxido reductase system of Penicillium chrysogenum (Penicillium chrysogenum).
T1 sequence: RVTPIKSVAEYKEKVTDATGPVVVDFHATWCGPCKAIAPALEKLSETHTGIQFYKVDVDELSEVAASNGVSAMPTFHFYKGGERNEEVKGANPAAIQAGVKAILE

Assay [2] addresses thioredoxin obtained from Spirulina platensis (Spirulina platensis).
The target in assay [3] is T1, low molecular weight (LMW) polypeptide component of the oxido reductase system of Penicillium chrysogenum (Penicillium chrysogenum). This is another data set of the same source.
For assay [4] the target is unchanged. This is another data set of the same source.
Assay [5] concerns the target thioredoxin obtained from Spirulina platensis (Spirulina platensis). The source holds these as a separate data set.
Assay [6] deals with δ-(L-α-aminoadipyl)-L-cysteinyl-D-valine (ACV) synthetase purified from Acremonium chrysogenum C10 (ATCC 48272) (Acremonium chrysogenum) (UniProt P25464).

B1: high molecular weight (HMW) polypeptide component of the oxido reductase system of Penicillium chrysogenum (enzyme)
chain: VHSKVVIIGSGPGAHTAAIYLSRAELQPVLYEGMLANGTAAGGQLTTTTDVENFPGFPSGIGGAELMDNMRAQSERFGTEIITETISKLDLSSRPFKMWTEWNDDEGSEPVRTADAVIIATGANARRLNLPGEETYWQNGISACAVCDGAVPIFRNKPLYVIGGGDSAAEEAMFLAKYGSSVTVLVRKDKLRASNIMADRLLAHPKCKVRFNTVATEVIGENKPNGLMTHLRVKDVLSNAEEVVEANGLFYAVGHDPASGLVKGQVELDDEGYIITKPGTSFTNVEGVFACGDVQDKRYRQAITSAGSGCVAALEAEKFIAETETHQEAKPVL
Turning to B1, the results for the DTNB reductase activity: increase of absorbance at 412 nm after 15 minutes (absorbance at 412 nm) in assay [1] and in assay [2] were 0.225 and 0.08, respectively. This molecule came in with a production of isopenicillin N from bis-ACV by IPNS under non-reducing conditions: antibiotic µg/ml by bioassay on Micrococcus luteus in assay [3] of 72 µg/mL. For the same molecule, the bis-ACV reductase activity: µmol NADPH oxidized per minute (340 nm) (µmol NADPH/minute) in assay [4] came out at 2.25; in assay [5], 1.93.

B2: oxido reductase enzyme system of Penicillium chrysogenum (HMW and LMW components together, with NADPH) (enzyme)
chain 1: VHSKVVIIGSGPGAHTAAIYLSRAELQPVLYEGMLANGTAAGGQLTTTTDVENFPGFPSGIGGAELMDNMRAQSERFGTEIITETISKLDLSSRPFKMWTEWNDDEGSEPVRTADAVIIATGANARRLNLPGEETYWQNGISACAVCDGAVPIFRNKPLYVIGGGDSAAEEAMFLAKYGSSVTVLVRKDKLRASNIMADRLLAHPKCKVRFNTVATEVIGENKPNGLMTHLRVKDVLSNAEEVVEANGLFYAVGHDPASGLVKGQVELDDEGYIITKPGTSFTNVEGVFACGDVQDKRYRQAITSAGSGCVAALEAEKFIAETETHQEAKPVL
chain 2: RVTPIKSVAEYKEKVTDATGPVVVDFHATWCGPCKAIAPALEKLSETHTGIQFYKVDVDELSEVAASNGVSAMPTFHFYKGGERNEEVKGANPAAIQAGVKAILE
As to B2, the KM for reduction of the protein disulphide in insulin in the assay with insulin was determined as 2300 µM.

B3: low molecular weight (LMW) polypeptide component of the oxido reductase system of Penicillium chrysogenum (protein)
chain: RVTPIKSVAEYKEKVTDATGPVVVDFHATWCGPCKAIAPALEKLSETHTGIQFYKVDVDELSEVAASNGVSAMPTFHFYKGGERNEEVKGANPAAIQAGVKAILE
Regarding B3, the ACVS activity: dpm of labelled ACV produced from [14C]valine in assay [6] was 509 dpm.

The values are drawn from patent publication US5753435.
